Assay results: the supplement of paper PMC10724198
± gives the standard deviation of the averaged measurements.

What follows are sequences tested on Saccharomyces cerevisiae (assay: protein stability index of tFT-peptide fusion (C-terminal peptide) (PSI (0-1 scale)); higher = more stable (slower turnover)). Conditions: genetic background: cdc34-1; temperature: 37 C.
Description: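 MPS profiling in S. cerevisiae of the tFT-X12 degron library: putative degron peptides plus stable controls, 12 aa, fused to the C-terminus of a sfGFP-mCherry timer. Cells are FACS-sorted into 8 mCherry/sfGFP bins and deep-sequenced. PSI runs from 0 (unstable) to 1 (stable). Backgrounds are wild type, das1Δ and doa10Δ at 30 °C, and wild type, das1Δ, cdc34-1 and cdc53-1 at 37 °C; 2-3 technical replicates each.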
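Note: PSI is a weighted mean of sequencing reads over stability bins, variants kept only with over 10 reads, mCherry proximal and sfGFP distal, peptide attached via GGGS linker.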

Going from WPRSFSIILLSR to WRMRCGLIIGLV, the protein stability index falls from 0.322 ± 0.036 to 0.0313 ± 0.0029.

Going from WRVFRPSLRLFA to WVFMVILLVFLV, the protein stability index falls from 0.531 ± 0.04 to 0.216 ± 0.0073.

Compared with YAFYLFSRILAA, YALVQHRWVYYF is higher in protein stability index: 0.232 ± 0.0091 for the first, 0.4 ± 0.0056 for the second.

First: YCFLSWVLMCCF
Second: YFNGLLPLVLVF
The protein stability index of the first is higher: 0.457 ± 0.019 for the first, 0.0299 ± 0.0068 for the second.

YHFSLFFPLSLP and YLAGPLARLRKF are within error of each other in protein stability index: 0.685 ± 0.022 for the first, 0.68 ± 0.046 for the second.

YLDRFIFIYNIF and YLGLSAVAILWM are within error of each other in protein stability index: 0.603 ± 0.034 for the first, 0.538 ± 0.041 for the second.

First: YLVFSLCSYRFL
Second: YNRKQEAAQKAN
The protein stability index of the first is lower: 0.596 ± 0.012 for the first, 0.671 ± 0.02 for the second.

Compared with YNTRLCTFSCML, YPCRLFVRSLLA is lower in protein stability index: 0.772 ± 0.013 for the first, 0.442 ± 0.05 for the second.

YRGFFIGKLMLV and YRKKIKNIWLRW are within error of each other in protein stability index: 0.488 ± 0.04 for the first, 0.442 ± 0.017 for the second.

YRLTIVWFFLAL and YSVERCLFVSVA are within error of each other in protein stability index: 0.434 ± 0.028 for the first, 0.422 ± 0.025 for the second.

First: YVASSWRHCFII
Second: YVLLSRVSVFSA
The protein stability index of the first is higher: 0.5016 ± 0.0016 for the first, 0.446 ± 0.0078 for the second.

Same assay, conditions: genetic background: cdc53-1; temperature: 37 C

First: WPRSFSIILLSR
Second: WRMRCGLIIGLV
The protein stability index of the first is higher: 0.3371 ± 0.002 for the first, 0.0521 ± 0.023 for the second.

Compared with WRVFRPSLRLFA, WVFMVILLVFLV is lower in protein stability index: 0.61 ± 0.018 for the first, 0.268 ± 0.017 for the second.

First: YAFYLFSRILAA
Second: YALVQHRWVYYF
The protein stability index of the first is lower: 0.302 ± 0.075 for the first, 0.633 ± 0.061 for the second.

Going from YCFLSWVLMCCF to YFNGLLPLVLVF, the protein stability index falls from 0.4613 ± 0.0037 to 0.0434 ± 0.004.

YHFSLFFPLSLP and YLAGPLARLRKF are within error of each other in protein stability index: 0.73 ± 0.028 for the first, 0.7579 ± 0.0021 for the second.

Going from YLDRFIFIYNIF to YLGLSAVAILWM, the protein stability index falls from 0.6848 ± 0.0062 to 0.533 ± 0.02.

First: YLVFSLCSYRFL
Second: YNRKQEAAQKAN
The protein stability index of the first is lower: 0.677 ± 0.022 for the first, 0.735 ± 0.029 for the second.

Compared with YNTRLCTFSCML, YPCRLFVRSLLA is lower in protein stability index: 0.8079 ± 0.007 for the first, 0.436 ± 0.031 for the second.

First: YRGFFIGKLMLV
Second: YRKKIKNIWLRW
The protein stability index of the first is higher: 0.548 ± 0.03 for the first, 0.428 ± 0.026 for the second.

Going from YRLTIVWFFLAL to YSVERCLFVSVA, the protein stability index falls from 0.519 ± 0.006 to 0.4443 ± 0.0013.

Going from YVASSWRHCFII to YVLLSRVSVFSA, the protein stability index falls from 0.657 ± 0.039 to 0.464 ± 0.031.

Same assay, conditions: genetic background: das1 deletion; temperature: 30 C

Going from WPRSFSIILLSR to WRMRCGLIIGLV, the protein stability index falls from 0.265 ± 0.029 to 0.155 ± 0.028.

Going from WRVFRPSLRLFA to WVFMVILLVFLV, the protein stability index falls from 0.467 ± 0.017 to 0.257 ± 0.021.

Going from YAFYLFSRILAA to YALVQHRWVYYF, the protein stability index rises from 0.236 ± 0.025 to 0.625 ± 0.019.

Compared with YCFLSWVLMCCF, YFNGLLPLVLVF is lower in protein stability index: 0.399 ± 0.018 for the first, 0.074 ± 0.01 for the second.

First: YHFSLFFPLSLP
Second: YLAGPLARLRKF
The protein stability index of the first is lower: 0.607 ± 0.015 for the first, 0.752 ± 0.027 for the second.

Compared with YLDRFIFIYNIF, YLGLSAVAILWM is lower in protein stability index: 0.599 ± 0.048 for the first, 0.414 ± 0.029 for the second.

First: YLVFSLCSYRFL
Second: YNRKQEAAQKAN
The protein stability index of the first is lower: 0.511 ± 0.019 for the first, 0.617 ± 0.0072 for the second.

Compared with YNTRLCTFSCML, YPCRLFVRSLLA is lower in protein stability index: 0.668 ± 0.033 for the first, 0.369 ± 0.023 for the second.

YRGFFIGKLMLV and YRKKIKNIWLRW are within error of each other in protein stability index: 0.482 ± 0.035 for the first, 0.475 ± 0.033 for the second.

YRLTIVWFFLAL and YSVERCLFVSVA are within error of each other in protein stability index: 0.354 ± 0.026 for the first, 0.352 ± 0.034 for the second.

Going from YVASSWRHCFII to YVLLSRVSVFSA, the protein stability index falls from 0.658 ± 0.022 to 0.378 ± 0.019.

Same assay, conditions: genetic background: das1 deletion; temperature: 37 C

Compared with WPRSFSIILLSR, WRMRCGLIIGLV is lower in protein stability index: 0.4355 ± 0.0031 for the first, 0.164 ± 0.0025 for the second.

Going from WRVFRPSLRLFA to WVFMVILLVFLV, the protein stability index falls from 0.598 ± 0.012 to 0.33 ± 0.038.

Going from YAFYLFSRILAA to YALVQHRWVYYF, the protein stability index rises from 0.3486 ± 0.0015 to 0.724 ± 0.011.

Going from YCFLSWVLMCCF to YFNGLLPLVLVF, the protein stability index falls from 0.438 ± 0.011 to 0.0623 ± 0.018.

Going from YHFSLFFPLSLP to YLAGPLARLRKF, the protein stability index rises from 0.711 ± 0.0088 to 0.738 ± 0.0093.

First: YLDRFIFIYNIF
Second: YLGLSAVAILWM
The protein stability index of the first is higher: 0.707 ± 0.031 for the first, 0.563 ± 0.014 for the second.

Compared with YLVFSLCSYRFL, YNRKQEAAQKAN is higher in protein stability index: 0.653 ± 0.011 for the first, 0.71085 ± 0.00017 for the second.

First: YNTRLCTFSCML
Second: YPCRLFVRSLLA
The protein stability index of the first is higher: 0.7881 ± 0.0015 for the first, 0.498 ± 0.0098 for the second.

Compared with YRGFFIGKLMLV, YRKKIKNIWLRW is lower in protein stability index: 0.63 ± 0.013 for the first, 0.6017 ± 0.0025 for the second.

First: YRLTIVWFFLAL
Second: YSVERCLFVSVA
The protein stability index of the first is higher: 0.609 ± 0.034 for the first, 0.502 ± 0.013 for the second.

Compared with YVASSWRHCFII, YVLLSRVSVFSA is lower in protein stability index: 0.724 ± 0.039 for the first, 0.533 ± 0.0079 for the second.

Same assay, conditions: genetic background: doa10 deletion; temperature: 30 C

First: WPRSFSIILLSR
Second: WRMRCGLIIGLV
The protein stability index of the first is higher: 0.361 ± 0.015 for the first, 0.1 ± 0.025 for the second.

WRVFRPSLRLFA and WVFMVILLVFLV are within error of each other in protein stability index: 0.287 ± 0.0051 for the first, 0.28 ± 0.0053 for the second.

First: YAFYLFSRILAA
Second: YALVQHRWVYYF
The protein stability index of the first is higher: 0.1792 ± 0.0014 for the first, 0.0888 ± 0.011 for the second.

First: YCFLSWVLMCCF
Second: YFNGLLPLVLVF
The protein stability index of the first is higher: 0.421 ± 0.025 for the first, 0.0659 ± 0.018 for the second.

First: YHFSLFFPLSLP
Second: YLAGPLARLRKF
The protein stability index of the first is lower: 0.378 ± 0.0088 for the first, 0.716 ± 0.037 for the second.

First: YLDRFIFIYNIF
Second: YLGLSAVAILWM
The protein stability index of the first is lower: 0.189 ± 0.0069 for the first, 0.381 ± 0.011 for the second.

YLVFSLCSYRFL and YNRKQEAAQKAN are within error of each other in protein stability index: 0.36 ± 0.011 for the first, 0.363 ± 0.025 for the second.

First: YNTRLCTFSCML
Second: YPCRLFVRSLLA
The protein stability index of the first is higher: 0.657 ± 0.025 for the first, 0.205 ± 0.0068 for the second.

First: YRGFFIGKLMLV
Second: YRKKIKNIWLRW
The protein stability index of the first is lower: 0.112 ± 0.017 for the first, 0.444 ± 0.058 for the second.

First: YRLTIVWFFLAL
Second: YSVERCLFVSVA
The protein stability index of the first is higher: 0.3504 ± 0.002 for the first, 0.287 ± 0.02 for the second.

Going from YVASSWRHCFII to YVLLSRVSVFSA, the protein stability index rises from 0.145 ± 0.012 to 0.297 ± 0.011.

Same assay, conditions: genetic background: wild type; temperature: 30 C

Going from WPRSFSIILLSR to WRMRCGLIIGLV, the protein stability index falls from 0.288 ± 0.025 to 0.134 ± 0.026.

First: WRVFRPSLRLFA
Second: WVFMVILLVFLV
The protein stability index of the first is higher: 0.33 ± 0.021 for the first, 0.228 ± 0.022 for the second.

Going from YAFYLFSRILAA to YALVQHRWVYYF, the protein stability index falls from 0.208 ± 0.016 to 0.0761 ± 0.011.

Compared with YCFLSWVLMCCF, YFNGLLPLVLVF is lower in protein stability index: 0.386 ± 0.0065 for the first, 0.0601 ± 0.0082 for the second.

First: YHFSLFFPLSLP
Second: YLAGPLARLRKF
The protein stability index of the first is lower: 0.383 ± 0.017 for the first, 0.749 ± 0.041 for the second.

First: YLDRFIFIYNIF
Second: YLGLSAVAILWM
The protein stability index of the first is lower: 0.202 ± 0.017 for the first, 0.412 ± 0.018 for the second.

YLVFSLCSYRFL and YNRKQEAAQKAN are within error of each other in protein stability index: 0.374 ± 0.029 for the first, 0.396 ± 0.018 for the second.

Going from YNTRLCTFSCML to YPCRLFVRSLLA, the protein stability index falls from 0.698 ± 0.021 to 0.235 ± 0.022.

Compared with YRGFFIGKLMLV, YRKKIKNIWLRW is higher in protein stability index: 0.113 ± 0.018 for the first, 0.322 ± 0.033 for the second.

First: YRLTIVWFFLAL
Second: YSVERCLFVSVA
The protein stability index of the first is higher: 0.349 ± 0.012 for the first, 0.314 ± 0.01 for the second.

Going from YVASSWRHCFII to YVLLSRVSVFSA, the protein stability index rises from 0.152 ± 0.014 to 0.329 ± 0.037.

Same assay, conditions: genetic background: wild type; temperature: 37 C

Compared with WPRSFSIILLSR, WRMRCGLIIGLV is lower in protein stability index: 0.419 ± 0.0043 for the first, 0.125 ± 0.018 for the second.

Going from WRVFRPSLRLFA to WVFMVILLVFLV, the protein stability index falls from 0.507 ± 0.036 to 0.315 ± 0.014.

Going from YAFYLFSRILAA to YALVQHRWVYYF, the protein stability index falls from 0.285 ± 0.013 to 0.0856 ± 0.0031.

First: YCFLSWVLMCCF
Second: YFNGLLPLVLVF
The protein stability index of the first is higher: 0.42 ± 0.0059 for the first, 0.0517 ± 0.028 for the second.

Going from YHFSLFFPLSLP to YLAGPLARLRKF, the protein stability index rises from 0.568 ± 0.032 to 0.735 ± 0.013.
